Assay results from US20060252678A1.

Biological target: mouse LSR (lipolysis stimulated receptor) (mouse) (UniProt Q99KG5)
Assay: cell-based or functional assay

Sequence of UniProt Q99KG5 (Q99KG5 36-594): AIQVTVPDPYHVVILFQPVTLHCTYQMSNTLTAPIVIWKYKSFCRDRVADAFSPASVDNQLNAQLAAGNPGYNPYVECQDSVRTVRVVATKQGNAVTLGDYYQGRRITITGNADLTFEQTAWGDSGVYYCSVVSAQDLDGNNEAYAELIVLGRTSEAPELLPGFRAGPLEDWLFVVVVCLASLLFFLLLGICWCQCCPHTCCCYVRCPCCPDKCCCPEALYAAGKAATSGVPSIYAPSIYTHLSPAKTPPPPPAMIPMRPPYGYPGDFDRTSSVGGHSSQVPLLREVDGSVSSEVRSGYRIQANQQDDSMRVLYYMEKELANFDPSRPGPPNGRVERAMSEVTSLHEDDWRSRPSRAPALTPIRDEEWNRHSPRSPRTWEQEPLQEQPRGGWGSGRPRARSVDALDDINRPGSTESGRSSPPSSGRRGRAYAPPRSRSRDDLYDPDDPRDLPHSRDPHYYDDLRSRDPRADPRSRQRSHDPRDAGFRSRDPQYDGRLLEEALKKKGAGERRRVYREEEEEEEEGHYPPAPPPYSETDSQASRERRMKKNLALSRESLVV

## 125I-mouse leptin (from UniProt P41160 22-167) (ligand)
  cell-associated 125I-leptin in BPRCL mouse liver cells after pre-incubation with increasing AdipoQ (AQ) or globular AdipoQ (AQ-GH): > 30%
